Assay [1] deals with T1, cynomolgus monkey CD38 expressed on the cell surface (cynomolgus monkey, UniProt Q5VAN0 1-301).
T1 construct: whole, on cells; also called cCD38-expressing cells
Kind of assay: flow cytometry (column FACS EC50 nM, cyno). As to the method: (§1) The recombinant cell line was described by J. Deckket et al. 2014 Clin Cancer Res 20:4574-4583. […] Antibody binding was evaluated after centrifugation and resuspension of cells by adding 200 μL/well PBS 1% BSA and read using Guava® easvCyte™ 8HT Flow Cytometry System. Apparent KD and EC50 values were estimated using BIOST@T-BINDING and BIOST@T-SPEED software, respectively.

Assay [2] deals with T1, cynomolgus monkey CD38 expressed on the …. Kind of assay: flow cytometry on preB::300.19 cells, apparent KD. How it is done:
as §1

Assay [3] has as its target T2, human CD38 expressed on the cell surface (human, UniProt P28907 1-300).
T2 construct: whole, on cells; also called hCD38-expressing cells; huCD38
The assay can be described thus: flow cytometry on preB::300.19 cells, apparent KD. How it is done: as §1

Assay [4] addresses T2, human CD38 expressed on the cell surface. Kind of assay: flow cytometry (column FACS EC50 nM, hu). As to the method:
as §1

For assay [5], the target named is T3, cCD38-his (SEQ ID NO: 4) (cynomolgus monkey, UniProt Q5VAN0 46-301).
T3 construct: His-tagged soluble protein; also called cyno CD38-histag; cynoCD38::Histag
Kind of assay: ELISA (column ELISA EC50 nM, cyno).

Assay [6] concerns the target T3, cCD38-his (SEQ ID NO: 4). The assay can be described thus: SPR, mAb captured via anti-human Fc, soluble CD38-his injected. How it is done: (§2) The binding properties of the anti-huCD38 mabs were evaluated using a BIAcore 2000 (BIAcore Inc., Uppsala, Ni). […] The surface was regenerated between injections using 30 μL of 50 mM NaOH-1 M NaCl. Individual sensorgrams wore analyzed using BIAsimulation software.

Assay [7] addresses T4, hCD38-his (SEQ ID NO: 2) (human, UniProt P28907 45-300).
T4 construct: His-tagged soluble protein derived from isoform A; also called human CD38-histag; hCD38::Histag
The description is as above. As to the method:
as §2

In assay [8] the target is T4, hCD38-his (SEQ ID NO: 2). The assay can be described thus: ELISA (column ELISA EC50 nM, hu).
Assay [9] has as its target human CD38 (Cambridge Biologics LLC Cat #03-01-0369) (human, UniProt P28907 43-300). The assay can be described thus: ELISA on coated hCD38-His. How it is done: The binding properties of the purified antibodies were analyzed either using ELISA or SPR methods. For ELISA, corresponding antigens for each binding site in the trispecific binding protein were used to coat a 96-well Immuno Plate (Nunc 439454, Thermo Fisher Scientific) overnight at 4° C. using 2 μg/ml each antigen m PBS(pH7.4). The coated plate was blocked using 5% skim milk 12% BSA in PBS for one hour at RT, followed by washing with PBS+[…] three times (Aqua Max 400, Molecular Devices). Serial dilution of antibodies (trispecific and control Abs) were prepared and added onto the ELISA plates (100 μl/well in duplicate), incubated at RT for one hour, followed by washing 5 times with PBS+0.25% Tween 20.
The reaction was terminated by adding 50 μl 1M H₂SO₄, and OD₄₅₀ was measured using SpectraMax M5 (Molecular Devices) and analyzed using SoltMax Pro6.3 software (Molecular Devices). The final data was transferred to GraphPad Prism software (GraphPad Software, CA. USA), and plotted as shown. EC50 was calculated using the same software.

Assay [10] concerns the target human CD28 (SPR of Example 4) (human, UniProt P10747 19-152, limits assumed). The assay can be described thus: SPR, mono-, bi- and trispecific formats (FIG. 5).

We go through five molecules from patent US20220041746A1 (Sanofi, published 2022).

B1: mAb4 (antibody, human IgG1, kappa, V domains shown)
VH: QVQLVQSGAEVVKSGASVKVSCKASGYTFTSFNMHWVKEAPGQGLEWIGYIYPGNGGTNYNQKFQGRATLTADTSASTAYMEISSLRSEDTAVYFCARTGGLRRAYFTYWGQGTLVTVSS
VL: DIVLTQSPATLSLSPGERATISCRASESVDSYGNGFMHWYQQKPGQPPRLLIYLASSRATGIPARFSGSGSGTDFTLTISPLEPEDFAVYYCQQNKEDPWTFGGGTKLEIKR
notes: also called antiCD38_C2-CD38-1_VH5-VL3
B1: the concentration giving a half-maximal response (EC50) in assay [1] was determined as 1.15 nM; in [4] it was 0.55 nM; in assay [5] it was 0.17 nM; in assay [8] it was 0.16 nM. For the same molecule, the Kd in assay [2] was 1.15 nM; in assay [3], 0.33 nM; in assay [6] it was 1.14 nM; in assay [7], 0.822 nM. The koff is 0.000201 s⁻¹ in assay [6] and 0.000529 s⁻¹ in [7].

B2: mAb2xCD28supxCD3mid IgG4 FALA (other)
heavy 1: QVQLVQSGAEVVKPGASVKVSCKASGYTFTSYYIHWVRQAPGQGLEWIGSIYPGNVNTNYAQKFQGRATLTVDTSISTAYMELSRLRSDDTAVYYCTRSHYGLDWNFDVWGKGTTVTVSSSQVQLVESGGGVVQPGRSLRLSCAASGFTFTKAWMHWVRQAPGKQLEWVAQIKDKSNSYATYYADSVKGRFTISRDDSKNTLYLQMNSLRAEDTAVYYCRGVYYALSPFDYWGQGTLVTVSSRTASTKGPSVFPLAPCSRSTSESTAALGCLVKDYFPEPVTVSWNSGALTSGVHTFPAVLQSSGLYSLSSVVTVPSSSLGTKTYTCNVDHKPSNTKVDKRVESKYGPPCPPCPAPEAAGGPSVFLFPPKPKDTLMISRTPEVTCVVVDVSQEDPEVQFNWYVDGVEVHNAKTKPREEQFNSTYRVVSVLTVLHQDWLNGKEYKCKVSNKGLPSSIEKTISKAKGQPREPQVCTLPPSQEEMTKNQVSLSCAVKGFYPSDIAVEWESNGQPENNYKTTPPVLDSDGSFFLVSKLTVDKSRWQEGNVFSCSVMHEALHNHYTQKSLSLSLG
light 1: DIVMTQTPLSLSVTPGQPASISCKSSQSLVHNNANTYLSWYLQKPGQSPQSLIYKVSNRFSGVPDRFSGSGSGTDFTLKISRVEAEDVGVYYCGQGTQYPFTFGSGTKVEIKGQPKAAPDIQMTQSPSSLSASVGDRVTITCQASQNIYVWLNWYQQKPGKAPKLLIYKASNLHTGVPSRFSGSGSGTDFTLTISSLQPEDIATYYCQQGQTYPYTFGQGTKLEIKTKGPSRTVAAPSVFIFPPSDEQLKSGTASVVCLLNNFYPREAKVQWKVDNALQSGNSQESVTEQDSKDSTYSLSSTLTLSKADYEKHKVYACEVTHQGLSSPVTKSFNRGEC
heavy 2: QVQLVQSGAEVVKPGASVKVSCKASGYTFTSYAMHWVKEAPGQRLEWIGYIYPGQGGTNYNQKFQGRATLTADTSASTAYMELSSLRSEDTAVYFCARTGGLRRAYFTYWGQGTLVTVSSASTKGPSVFPLAPCSRSTSESTAALGCLVKDYFPEPVTVSWNSGALTSGVHTFPAVLQSSGLYSLSSVVTVPSSSLGTKTYTCNVDHKPSNTKVDKRVESKYGPPCPPCPAPEAAGGPSVFLFPPKPKDTLMISRTPEVTCVVVDVSQEDPEVQFNWYVDGVEVHNAKTKPREEQFNSTYRVVSVLTVLHQDWLNGKEYKCKVSNKGLPSSIEKTISKAKGQPREPQVYTLPPCQEEMTKNQVSLWCLVKGFYPSDIAVEWESNGQPENNYKTTPPVLDSDGSFFLYSKLTVDKSRWQEGNVFSCSVMHEALHNHYTQKSLSLSLG
light 2: DIVLTQSPATLSLSPGERATISCRASQSVSSYGQGFMHWYQQKPGQPPRLLIYGASSRATGIPARFSGSGSGTDFTLTISPLEPEDFAVYYCQQNKEDPWTFGGGTKLEIKRTVAAPSVFIFPPSDEQLKSGTASVVCLLNNFYPREAKVQWKVDNALQSGNSQESVTEQDSKDSTYSLSSTLTLSKADYEKHKVYACEVTHQGLSSPVTKSFNRGEC
notes: also called CD38VH1×CD28sup×CD3mid IgG4 FALA
B2: the binding result in [9] is on record as “binds”.

B3: mAb2xCD28supxCD3mid IgG1 NNSA (other)
heavy 1: QVQLVQSGAEVVKPGASVKVSCKASGYTFTSYYIHWVRQAPGQGLEWIGSIYPGNVNTNYAQKFQGRATLTVDTSISTAYMELSRLRSDDTAVYYCTRSHYGLDWNFDVWGKGTTVTVSSSQVQLVESGGGVVQPGRSLRLSCAASGFTFTKAWMHWVRQAPGKQLEWVAQIKDKSNSYATYYADSVKGRFTISRDDSKNTLYLQMNSLRAEDTAVYYCRGVYYALSPFDYWGQGTLVTVSSRTASTKGPSVFPLAPSSKSTSGGTAALGCLVKDYFPEPVTVSWNSGALTSGVHTFPAVLQSSGLYSLSSVVTVPSSSLGTQTYICNVNHKPSNTKVDKKVEPKSCDKTHTCPPCPAPELLGGPSVFLFPPKPKDTLMISRTPEVTCVVVDVSHEDPEVKFNWYVDGVEVHNAKTKPREEQYNNASRVVSVLTVLHQDWLNGKEYKCKVSNKALPAPIEKTISKAKGQPREPQVCTLPPSRDELTKNQVSLSCAVKGFYPSDIAVEWESNGQPENNYKTTPPVLDSDGSFFLVSKLTVDKSRWQQGNVFSCSVMHEALHNHYTQKSLSLSPG
light 1: B2 light 1
heavy 2: QVQLVQSGAEVVKPGASVKVSCKASGYTFTSYAMHWVKEAPGQRLEWIGYIYPGQGGTNYNQKFQGRATLTADTSASTAYMELSSLRSEDTAVYFCARTGGLRRAYFTYWGQGTLVTVSSASTKGPSVFPLAPSSKSTSGGTAALGCLVKDYFPEPVTVSWNSGALTSGVHTFPAVLQSSGLYSLSSVVTVPSSSLGTQTYICNVNHKPSNTKVDKKVEPKSCDKTHTCPPCPAPELLGGPSVFLFPPKPKDTLMISRTPEVTCVVVDVSHEDPEVKFNWYVDGVEVHNAKTKPREEQYNNASRVVSVLTVLHQDWLNGKEYKCKVSNKALPAPIEKTISKAKGQPREPQVYTLPPCRDELTKNQVSLWCLVKGFYPSDIAVEWESNGQPENNYKTTPPVLDSDGSFFLYSKLTVDKSRWQQGNVFSCSVMHEALHNHYTQKSLSLSPG
light 2: B2 light 2
notes: also called CD38VH1×CD28sup×CD3mid IgG1 NNAS
Regarding B3, the binding result in [9] is “binds”.

B4: anti-CD28cvn antigen binding domain (antibody, V domains shown)
VH: QVQLQESGPGLVKPSQTLSLTCTVSGFSLSDYGVHWVRQPPGKGLEWLGVIWAGGGTNYNPSLKSRKTISKDTSKNQVSLKLSSVTAADTAVYYCARDKGYSYYYSMDYWGQGTTVTVSS
VL: DIVLTQSPASLAVSPGQRATITCRASESVEYYVTSLMQWYQQKPGQPPKLLIFAASNVESGVPARFSGSGSGTDFTLTINPVEANDVANYYCQQSRKVPYTFGQGTKLEIK
notes: also called anti-CD28evn; conventional agonist, "cvn"
Take B4: the binding result in assay [10] was “binds”.

B5: anti-CD28sup antigen binding domain (antibody, V domains shown)
VH: QVQLVQSGAEVVKPGASVKVSCKASGYTFTSYYIHWVRQAPGQGLEWIGSIYPGNVNTNYAQKFQGRATLTVDTSISTAYMELSRLRSDDTAVYYCTRSHYGLDWNFDVWGKGTTVTVSS
VL: DIQMTQSPSSLSASVGDRVTITCQASQNIYVWLNWYQQKPGKAPKLLIYKASNLHTGVPSRFSGSGSGTDFTLTISSLQPEDIATYYCQQGQTYPYTFGQGTKLEIK
notes: also called super agonist, "sup"
Consider B5, for which the binding result in assay [10] is “binds”.
